Among the data in paper PMC5034536, “Molecular insights into substrate recognition and catalytic mechanism of the chaperone and FKBP peptidyl-prolyl isomerase SlyD” (BMC Biology, 2016) are Kd, dH and stoichiometry N values, retold here.

Assay [1] concerns the target full-length SlyD from Thermus thermophilus (TtSlyDFL) (Thermus thermophilus).
Assay [2] has the same target. This is another data set of the same source.

Where two headings read alike, the source gives them in different places. No end group written: not given here.

As to WNPKMKP-NH2 [S2-short8 peptide], in assay [1], the equilibrium dissociation constant (Kd) came out at 163 µM, the dH was -5.1 kcal/mol and the stoichiometry N was determined as 1.29.

Regarding SGLVPRGS-NH2 [SlpA linker peptide], in assay [2], the dissociation constant Kd stood at 133 µM, the dH was -0.4 kcal/mol and the stoichiometry N worked out at 1.44.

In assay [2], VGSNSYPHKYNNYEG-NH2 [T1 peptide] displayed a Kd of 158 µM, a dH of -14.6 kcal/mol and a stoichiometry N of 1.13.

As a reminder, the Kd is a measure of binding affinity in units of concentration. A higher Kd goes with a looser complex. The term stoichiometry N denotes a count of units in the complex or per binding partner.
